# Laboratory results reported in the RNAGym collection of RNA variant scans (doi:10.7554/elife.90254).
# B1: LINE1-full (parent)
# chain: UACGUAGGUGGUUUUCCCCUGAUAGUGCUAAGGGGGCCUGGAAGUUUGGACUGGGCAGAGCUCAACACAGCGUGGCAAAGUGGCUGUGGCUAGACUGCCUCUCUGGAUUCCUCGUCACUCAGCAGGGCAUCUCUGAGAGAAAUGCC
# Variants of: B1
# Experiment: self-cleavage, relative activity (ratio to wild type); higher = more cleavage; in vitro, sequencing; the parent is a self-cleaving ribozyme
row,Variant,self-cleavage
1,UACGUAGGUGGUCUUCCCCUGAUAGUGCUAAGGGGGCCUGGAAGUUUGGACUGGGCAGAGCUCAACACAGCGUGGCAAAGUGGCUGUGGCUAGACUGCCUCUCUGGAUUCCUCGUCACUGAGCAGGGCAUCUCUGAGAGAAAUGCC [U13C C120G],1.48
2,UACGUAGGUGGUUUUCCCCUGAUAGUGCUAAGGGGGCCUGGAAGUUUGGACUGGGCAGAGCUCAACACAGCAUGGCAAAGUGGCUGUGGCUAGACUGCCUCUCUGGAUUCCUCGUCACUCAGCAGGGCACCUCUGAGAGAAAUGCC [G72A U130C],1.85
3,UACGUAGGUGGUUUUCCCCUGAUAGUGCUAAGGGGGCCUGGAAGUUUGGACUGGGCAGAGCUCAACACAGCGUGGCAAAGUGGCUGUGGCUAGACUGCCUCUCUGGAUUCCUCGUCAUUCGGCAGGGCAUCUCUGAGAGAAAUGCC [C118U A121G],1.58
4,UACGUAGGUGGUUUUCCCCUGAUAGUGCUAAGGGGGCCUGGAAGUUUGGACUGGGCAGAGCUCAACACAGCGUGGCAAAGUGGCUGUGGCUAGACUGCCUCUCUGGAUUCCUCGUCGCUCAGCAAGGCAUCUCUGAGAGAAAUGCC [A117G G125A],0.99
5,UACGUAGGUGGUUUUCCCCUGAUAGUGCUAAGGGGGCCUGGAAGUUUGGACUGGGCAGAGCUCAACACAGCGUGCCGAAGUGGCUGUGGCUAGACUGCCUCUCUGGAUUCCUCGUCACUCAGCAGGGCAUCUCUGAGAGAAAUGCC [G75C A77G],0.8
6,CACGUAGGUGGUUUUCCCCUGAUAGUGCUAAGGGGGCCUGGAAGUUUGGACUGGGCAGAGCUCAACACGGCGUGGCAAAGUGGCUGUGGCUAGACUGCCUCUCUGGAUUCCUCGUCACUCAGCAGGGCAUCUCUGAGAGAAAUGCC [U1C A69G],0.42
7,UACGUAGGUGGUUUUCCCCUGAUAGUGCUAAGGGAGCCUGGAAGUUUGGACUGGGCAGAGCUCAACACAGCGUGGCAAAGUGGCUGUGGCUAGACUGCCUCUCUGGAUUCCUCGUCACUCUGCAGGGCAUCUCUGAGAGAAAUGCC [G35A A121U],0.97
8,UACGUAGGUGGUUUUCCCCUGAUAGAGCUAAGGGGGCCUGGAAGUUUGGACUGGGCAGAGCUCAACACAGCGUGGCAAAGUGGCUGUGGCUAGACAGCCUCUCUGGAUUCCUCGUCACUCAGCAGGGCAUCUCUGAGAGAAAUGCC [U26A U96A],0.09
9,UACGUAGGUGGUUUUCCCCUGGUAGUGCUAAGGGGGCCUGGAAGUUUGGACUGGGCAGAGCUCAACACAGCGUGGCUAAGUGGCUGUGGCUAGACUGCCUCUCUGGAUUCCUCGUCACUCAGCAGGGCAUCUCUGAGAGAAAUGCC [A22G A77U],0.79
10,UACGUAGGUGGUUUUCCCCUGAUAGUGCUAAGGGGGCCUGGAAGUUUGGUCUGGGCAGAGCUCAACACAGCGUUGCAAAGUGGCUGUGGCUAGACUGCCUCUCUGGAUUCCUCGUCACUCAGCAGGGCAUCUCUGAGAGAAAUGCC [A50U G74U],1.04
11,UACGUAGGUGGUUUUCCCCUGAUAGUGCUAAGGGGGCCUGGAAGCUUGGACUGGGCAGAGCUCAACACAGCGUGGCAAAGUGGCUGUGGCUAGACUGCCUCUCUGGAUUCCUCGUCACUCAGCAGGGCAUCUCUGAGAGAAAUUCC [U45C G144U],1.42
12,UACGUAGGUAGUUUUCCCCUGAUAGUGCUAAGGGGGCCUGGAAGUUUGGACUGGGCAGAGCUCAACACAGCGUGGCAAAGUGGCUGUGGCUAGACUGCCUCUCUGGAUUCCUCGUCACUCAGCAGGGCACCUCUGAGAGAAAUGCC [G10A U130C],2.22
13,UACGUGGGUGGUUUUCCCCUGAUAGUGCUAAGGGGGCCUGGAAGUUUGGACUGGGCAGAGCUCAACGCAGCGUGGCAAAGUGGCUGUGGCUAGACUGCCUCUCUGGAUUCCUCGUCACUCAGCAGGGCAUCUCUGAGAGAAAUGCC [A6G A67G],0.39
14,UACGUAGGUGGUUUUCCCCUGAUAAUGCUAAGGGGGCCUGGAAGUUUGGACUGGGCAGAGCUCAACACAGCGUGGCAAAGUGGCUGUGGCCAGACUGCCUCUCUGGAUUCCUCGUCACUCAGCAGGGCAUCUCUGAGAGAAAUGCC [G25A U91C],0
15,UACGUAGGUGGUUUACCCCUGAUAGUGCUAAGGGGUCCUGGAAGUUUGGACUGGGCAGAGCUCAACACAGCGUGGCAAAGUGGCUGUGGCUAGACUGCCUCUCUGGAUUCCUCGUCACUCAGCAGGGCAUCUCUGAGAGAAAUGCC [U15A G36U],1.31
16,UUCGUAGGUGGUUUUCCCCUGAUAGUGCUAAGGGGGCCUGGAAGUUUGGACUGGGCAGAGCUCGACACAGCGUGGCAAAGUGGCUGUGGCUAGACUGCCUCUCUGGAUUCCUCGUCACUCAGCAGGGCAUCUCUGAGAGAAAUGCC [A2U A64G],0.23
17,UACGUAGGUGGUUUUCCCCUGAUAGUGCUAAGGGGGCCCGGAAGAUUGGACUGGGCAGAGCUCAACACAGCGUGGCAAAGUGGCUGUGGCUAGACUGCCUCUCUGGAUUCCUCGUCACUCAGCAGGGCAUCUCUGAGAGAAAUGCC [U39C U45A],0.87
18,UACGUAGGUGGUUUUCCCCUGAUAGUGCUAAGGGGGCCUGGAAGUUUGGACUGGGCAGAGCACAACACAGCGUGGCAAAGUGGCUGUGGCUAUACUGCCUCUCUGGAUUCCUCGUCACUCAGCAGGGCAUCUCUGAGAGAAAUGCC [U62A G93U],0.03
19,UACGUAGGCGGUUUUCCCCUGAUAGUGCUAAGGGGGCCUGGAAGUUUGGACUGGGCAGAGCUCAACACAGCGUGGCAAAGUGGCUGUGGCUAGACUGCCUCUCAGGAUUCCUCGUCACUCAGCAGGGCAUCUCUGAGAGAAAUGCC [U9C U104A],1.4
20,UACGUAGGUGGUUUUCCCCUGAUAGUGCUAUGGGGGACUGGAAGUUUGGACUGGGCAGAGCUCAACACAGCGUGGCAAAGUGGCUGUGGCUAGACUGCCUCUCUGGAUUCCUCGUCACUCAGCAGGGCAUCUCUGAGAGAAAUGCC [A31U C37A],1.53
